This series in a line: soluble fraction after stress (log2 fold change); higher = more stays soluble; pooled small domains, quantitative proteomics. The note with it: stress: pH 4. The procedure, abridged:
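Pooled custom libraries of small protein domains were subjected to pH 4 and measured by high-throughput quantitative proteomics. The log2 fold change in soluble amount per domain is reported, higher values meaning more remained soluble. This is used as a measure of aggregation propensity.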

The source of these data is the domain aggregation screens of Martell et al. (2025).

Regarding “HMKMPNGYGSITKLSGKRRKPWRVRKTAGWELDAKTQKLKQTYINIGYYETRADAMSALVSYNEDP”, the “soluble fraction (log2)” value was -0.151.
Under “HMKMQPVISQGVLYINNVTDVRTIEVFDISGRIVADAAASTTVNIAHLNEGPYIVKVTTVNGIESIKILNK” stands -0.889.
The figure for “HMKNAMTDIYLEEIKKILTKNEFLVYTLRELNNFSVQFITDNYDLSEKTIYNSVYRAKKKIDRHFT” is -0.696.
With “HMKNDKLLIFMELKGISRTQLSKSTGIPASTLGRIINGDVQKIKAVYMEAIANALDTSIHTIFDV”, the “soluble fraction (log2)” value is -0.352.
The figure for “HMKNDNIHMMASKINGIALEVGVLTPGMHPKNDLSEGEVGYIVTNLKTTREAKVGDTVTLAKKPAATPLPG” is 0.187; for “HMKNETFAITSEDAGKRLDVWLTNILGDYSRSYVERLVEQGNVTVGGKTVKAGYKLKAGDSVQVSIPGPK” it is 0.0982.
In the case of “HMKNISSEEDREKALSLGITQEFIDNKGRYFITVPNKPSNFKEQALNIQKEISEQIDTVINKRFEF”, the “soluble fraction (log2)” value was -0.263.
As to “HMKNLDILTPKEIEVLNLVAKGYSNSKISKELDIAEVTVKKHIGSMFQKLDVKDRLSLALIL”, the “soluble fraction (log2)” value was -0.52.
Consider “HMKNLKPSTEVILKELVKRYPDQTEFRKQQIVDVGQSFGYKGKDYGPIFDADNRVKIGTYDLAGLIVPLQR”, for which the “soluble fraction (log2)” value turned out to be 0.0835.
The figure for “HMKNLNVIDLSALRTLELKESSDWTLIQKRFKLLVKKYHPDMNAGSKQYEEKLKKITLAYTHLKKLF” is -0.715; for “HMKNQQLFNIGDRFQVDGVAYRMEKLFPENGTVEVYNLGVGRHKTMSFEEILALWNSGKLLFEI” it is -0.945; for “HMKNSIKLDNFVGMSYDEVISNKEYDFNFVSAFEKTSDYEAGTIIGQTPAAEERVMVGTTVTLTVAQP” it is 0.158.
With “HMKNTADRVYENLFHMLVSGDYAPGDRIPSEHELKERFNVSRNTIRAALNRMNALGIIETRQGDGTYLKG”, the “soluble fraction (log2)” value is -0.147.
Consider “HMKNTFGLTEREMEVLALIVDGLSNPEIAEKLFITRATAKAHVHSILQKLYVDDRTQAAVTAMREGL”, for which the “soluble fraction (log2)” value was -1.14.
On to “HMKNTIPVPHIIGLSEQEARETLERAGLQLNVIKTEPNTKYESGQVTDTNPNEGIKVPKGTIVNVVLADS”, for which the “soluble fraction (log2)” value is -0.0342.
For “HMKNTLDAYIRYLSNFLSRNNYPEAEDLSFINARADQAYEVFLEARRGGVDVSTAEELAMIALMQGY”, the “soluble fraction (log2)” value was -1.34.
The figure for “HMKNVEEMILGKLKRKVSENLENASFEEIILVDAEKSVYKGIIKANYIEYYFRVNLSTGEVLSWKLK” is -0.755; for “HMKPAFTPYVVKVTADVLNVRSGPGTNYGITTKVKKGEAYTIVEEKNGWGKLKSGAGWISLEYTVK” it is -0.0552; for “HMKPALFSADELNRLYRYGLSLTGERDRAYDLLQTALEKYLRQSQAPANAMRYVRKIMHNQFIDDYR” it is -0.0906.
As to “HMKPDWLSDGRLIPDEVMSHLRKIAVHAVEEMGYSPEDVIKILGLSRNTIYDWLKRFREHGYEGLDTKK”, the “soluble fraction (log2)” value is -0.738.
The figure for “HMKPLAQQVNDYLAATRTSIATLANEIPGYSRPTISRYLAGKYDGDITTIEKLLAEWLAQRTG” is -0.581; for “HMKPNEYVSGETFPYLGKNYRLKVLHGSENSVRLKGGYFITTISNRDSQLSTVKSLLEDWYQTHADK” it is -0.163; for “HMKPPTIELSYSEFIELVERGKVSKVIFSSDNYTLKGETVNGENFETVRPPFLEDNLSEILTIHKVPVSSE” it is -0.785.
Under “HMKPSKTVYTTANLNLRNGASMSAAVYTSVSRGTALATTGRTTSGWTQITHRGRTLWASSKYLTTTTPP” stands 0.155; under “HMKPSNRSYPTALRMEVIGIIRERYADFGPTLAGEKLAELHGIHLGRETIRQWMMAAGLWKDRR”, -0.759; under “HMKPTVKVPNVVNLSLRNAQIQLQNYGLEVGSISYESSRFKNAVLRQSISEGSVVEKGTTINLVISDGL”, 0.178.
Consider “HMKPVPPLNGTSLRDLALGYAGRYATTAARLKHYLQRKLRERGWGGEDEPDLDGLVARLVELGYVNDEVF”, for which the “soluble fraction (log2)” value is -0.723.
For the sequence “HMKQAINFSDLNSLEEGLGIAIRQKWNEVSINDVPEDKIELVEDWINNNRGKYKGINISIGSTY”, the “soluble fraction (log2)” value came to 0.0722.
In the case of “HMKQAVESAEAIFEEIARIKKLSLVKSEAEEIARKTGLQKFTIASQLLKNQHAYEMDESEIASLWDKKI”, the “soluble fraction (log2)” value is -0.594.
The figure for “HMKQDFVYNGFVEAKGDDLMVQINYKGETYYVTEGESFGGFTVKSANKDKVVLSGQGGAETVLEFR” is -0.536; for “HMKQENRLKILRKEKGLTQTKLANEIGVSKRTIIAWENDERQIKPDKAQQLADYFGVKEGYLLGYTNN” it is -0.0458.
For the sequence “HMKQESSEDLLNEVIDKVIDSNPDEKNRLLDGELKLVSFFMGQVMKETKGKANPGVINGLIKKKFNI”, the “soluble fraction (log2)” value is -0.748.
As for “HMKQISNTDELEAMIQKIIEDNSQQVEKFRSGNEKLFGWFVGQVMKNTQGAANPKVVNEILKKSLK”, the “soluble fraction (log2)” value came out at 0.181.
The figure for “HMKQISNTDELESMAKNIIQENPDQVSKFKNGNEKLFGWFVGQMMKSTGGTANPKVVNEILKNLLN” is 0.162.
As to “HMKQLIGYSVIDIKMGKLGEISFVNSKTAQALIHVSKDGKGFYFPWHKQFVKNIDAEKGIMEVEIPKEFLD”, the “soluble fraction (log2)” value is -0.85.
As to “HMKQLNKRQNDILSFAEKQGYVSVENLAKLFSVTQQTIRRDINYLSDNELLVRTHGGAYYSS”, the “soluble fraction (log2)” value was -0.0112.
Turning to “HMKQNRNLPVQIINNGKIIESVMTEFNLDIDWVYSEAKRLGYKNIKDIFYAGINRDGQFFIVPLF”, the “soluble fraction (log2)” value was -1.35.
For the sequence “HMKQNVEAVIKERAIEKARAQVKAVSTHMALEAQSLSKEQLEFEIERIAAQIIDKMPSDFWND”, the “soluble fraction (log2)” value is -0.819.
Take “HMKQPNFTVIETKILELLFQKDLSSREMQEILKISKDNLIFALQNLLEQEKIVLQTSNTYTVN”: the “soluble fraction (log2)” value is -2.02.
Regarding “HMKQPVPDEIYFKRLANATEALGRYPRASERKKFGLNMSKRRYPTLTDFINKAIELGYVEDFR”, the “soluble fraction (log2)” value was 0.22.
Consider “HMKQQAYEQGKAAYQSGDWLRAVTQLGQVKEAGEKNGEVDHLLGNAYMKLGQFESAAYAYNSALEDVA”, for which the “soluble fraction (log2)” value was found to be 0.123.
As for “HMKQTMIVVMEKDAPQSQIDDMVKRIEGLGLKAHTIVGTQRTVVAAIGEKREDTRESLAGSPGVAEVVPIL”, the “soluble fraction (log2)” value is -0.137.
For “HMKQYVEPASETEKMVVELWEKVLLTEKIGMHDDFFELGGHSLKAMRLISLYHQEFNVRLSLKSLFEKLK”, the “soluble fraction (log2)” value was -1.07.
In the case of “HMKRAVGLDEYRDSIVLKKPEGYTEESYAAYKNAYDALMALDSKETTAEMFANAKSAFEAAQAGLVQKP”, the “soluble fraction (log2)” value stood at 0.0195.
With “HMKRIFEKKVVTESLNGLRLDKAAATLFADFSRNELGQWIKDEALLVNGKAKKVKEKVSEGDVLALDVELI”, the “soluble fraction (log2)” value was 0.0389.
Under “HMKRISDEDLLVMRRIDEVHTYHPTWGYRTITRILRRDDHLLINPKKVRRIMRDMGIYTIYPK” stands -0.41; under “HMKRITAVISQKKGRDYYYIIVSYYLSNGKRVQRWIKTEFPINGNNKRKLEQKRIEVLQEWQDKLV”, -0.486; under “HMKRLQEQAYDYLKELILSGKMIENEIYSETKLASEIGISRTPIRDALQRLSQDGFIDIIPSKGFRIH”, -0.889.
The figure for “HMKRMSKKQLSAVIEKYFSSQPGVTLTLKDIFRNLHLDTHPLKMIALDILEEMSWDDVIMKVSDTSYALNT” is 2.81e-05; for “HMKRNLESVLDHIEGIGPKRRKALYKHFGNLDAMRVAELEELESVEGMNKKAALAVYEFFRRNS” it is 0.411.
With “HMKRNTKAEVLEILLNSGETPVSGERLAENLGISRNAVWKAVTALKEDGYNISAKRNSGYILNKS”, the “soluble fraction (log2)” value worked out at 0.376.
As to “HMKRREENLRRLALSTAERVKRKGKKEILNPMSPQERRIIHLTLQNNKEVVTHSEGEDPYRRVIISPRN”, the “soluble fraction (log2)” value is 0.311.
On to “HMKRRSLQVGDIVQVRSLNVKGEVVSIGKNEVVVAVGRLQMRAGFDDLDFKERPKEEREVESV”, for which the “soluble fraction (log2)” value was determined as 0.0749.
As to “HMKRSFGSVRQLRSGNYQARYTGPDTVRHTSPVTYTSKMDAEAWLVDERRKISSGTWTPPAR”, the “soluble fraction (log2)” value came out at 0.251.
As to “HMKRSVIVTAERAEVRQKADEGSALVFEAEKNVSLEYLEAAPGGWVKVRHLDGQSGFVRGNQI”, the “soluble fraction (log2)” value was -0.901.
In the case of “HMKRTKLEEATEWLRDRLSDGVKYNGEELLREGESADMARRTLRRAAQELGVIIERERGARGRWFWSLP”, the “soluble fraction (log2)” value is 0.254.
On to “HMKRTLLLEGRTIPYELTQKPVKNINIRVHADGSVRVSAGPWVSPEAVDAVLRQRSAFLLRALDQFAAQAP”, for which the “soluble fraction (log2)” value was -0.923.
The figure for “HMKRVPFAFAGDMLRWAAWLYHVEKRTQNEIAEELEVSRQTVANYLSEAMSQGLVQVQLRSDIIE” is -1.39.
In the case of “HMKSAIGEEKAENFAFADLGMDPLSAEGVRTEFGFEQGQFVYKVYFTADGTEYEYWIKASDGSVVKKGMDL”, the “soluble fraction (log2)” value is -1.33.
Turning to “HMKSAIKQNILLYLSNKGVTSYEFYKISGVTRGILQQSNGISEDNIAKFLAYAPDVNIEWLLTGKGDMLKH”, the “soluble fraction (log2)” value was -0.325.
The figure for “HMKSATGKIPDFISDLPVDEFVRELIVTNAFQPLNKFKEVQNHIGSALKIYVDELTEKRANGTVHILYSHK” is -0.324; for “HMKSAYADVAIAKVQDYVNVRAENNEDSEVLGKLYNNSAATVLETTDDGWYKISSGSVTGYVKSEYVVVG” it is -1.04; for “HMKSEMYIDLSNALLKMSERDKELLTYRYTMEMSSKEISQITGIKESNVNSYIRRAREKLLKIFNAMNK” it is 0.123.
Consider “HMKSFDERQAALNELAKVIEGTGRKAEQDAEFRREQNQLMIDKIDEQLKGDLTDSQREELKKERAALARK”, for which the “soluble fraction (log2)” value was found to be 0.0649.
In the case of “HMKSGLLNLSTRKQEKIKQALLSEFSNVSLLEAKVANIVTLAEISRGSFYTYFEDIYDAYQWLASI”, the “soluble fraction (log2)” value stood at 0.22.
For “HMKSIFIRADELAAELDVSKALAYKMINQWNEELKAKGYTTVGGRVSRQYYYEKIYGAENVFDF”, the “soluble fraction (log2)” value was -1.78.
As for “HMKSILDDVVGLGPVRKKALLSAAGGFRKLRDMDVDEVIGLGAVPEEVAREVVTVLAQYNGERDRVEGL”, the “soluble fraction (log2)” value amounted to 0.104.
As to “HMKSILSEIPGIGPKKRKSLMMQFGSVKNISEASLKDLSSTKGINSNLSKEIFNFFSVEKNN”, the “soluble fraction (log2)” value was determined as 0.15.
With “HMKSKNILLGEYKGKEVHVGEGKYGPFILYDKKFKSIGAYLTENSLMLKDLTIEDYSKIMKFTENSNSKS”, the “soluble fraction (log2)” value turned out to be 0.0285.
